Laboratory results published in patent US20200181677A1 (REGENTS OF THE UNIVERSITY OF MINNESOTA, published 2020).
Ends that are not written are not given here.

B1: peptide #11 (Optimized PKCβ Sub.), alanine-substituted, in PKCα FRET sensor (peptide)
peptide: FKLKRKGAFKKFA
modifications: also: fused to PKCα catalytic domain via 10 nm ER/K linker in FRET sensor
notes: Ala form in the FRET sensor, tethered to the PKCα catalytic domain by the 10 nm ER/K FRET linker; also called p11

Biological target: T1, human PKCα catalytic domain (human, UniProt P17252 336-672, limits assumed)
T1 construct: domain: catalytic domain; For activity assays the catalytic domain was isolated by TEV cleavage; also called catalytic domain of PKCα; PKC catalytic domain
Test: time-resolved FRET (TCSPC) of eGFP/mCherry peptide-catalytic domain sensor

Row | Mol Fraction Bound [mol fraction] | Mol Fraction Unbound [mol fraction] | Binder
1 | 0.08 | 0.92 | ASQKRPAQRH (peptide, not shown: large carriers; small tags and cut ends, also called p6) [peptide #6 (Myelin Basic Protein), alanine-substituted, in PKCα FRET sensor]
2 | 0.16 | 0.84 | RRRRAIIFI (peptide, not shown: large carriers; small tags and cut ends, also called p10) [peptide #10 (Optimized PKA Sub.), alanine-substituted, in PKCα FRET sensor]
3 | 0.15 | 0.85 | B1
